B1: TPR t1 (parent)
chain: GACCAAUCUGCCCUCAGAGCUCGAGAACAUCUUCGGAUGCAGAGGAGGCAGGCUUCGGUGGCGCGAUAGCGCCAACGUCCUCAACCUCCAAUGCAUCCCACCACAUGAUGAUGCCUGAAGAGCCUUGGUUUUUUG

Variants of: B1
Assay: polymerase ribozyme fitness, log enrichment relative to wild type (log ratio); higher = more active; in vitro selection for triplet polymerase activity
Procedure, shortened: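 Input and output libraries were sequenced on Illumina after a single in vitro selection round, run in triplicate on PCR-built, transcribed mutant libraries of each subunit of a heterodimeric triplet polymerase ribozyme. Selection annealed libraries to a biotinylated primer, the partner subunit and triplets, incubated them frozen at −7 °C, then gel-excised extended constructs for streptavidin-bead capture and RT-PCR. Genotypes with ≥10 input reads and ≥1 read per output were kept. Fitness is the logarithm, taken in base 2, of genotype enrichment divided by wild-type enrichment, using inverse-variance-weighted replicate averages.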

Variant	polymerase ribozyme fitness (log ratio)
G35U C73G	-5.75
C34A G35U G48C	-3.95
C34A G93A C101U	-3.81
G35U G39A	-5.13
G36A G51U G120A	-3.42
C34A G58C	-2.18
U32G A37G G113C	-5.08
U32C C64U	0.123
C34U A95C	-5
C34A A37U A46U A74U G113C	-6.79
C34A G39U C56G	-3.08
G36A A43U C62U G113A	-3.5
G35U G45A U81A C89A G120A	-4.73
C34A C124A	-1.1
G35A C85G U106G G120C	-4.02
C34A C123A U132C	-2.13
U32C A50G C79U C88U C114A G122A	-2.69
G35A U131A	-4.99
U33C C49A	-5.36
C31G G61C	-7.02
C34G G61U C64U C99A G120A A121G	-5.39
U32G A103G C104A C123A	-6.74
G35A U55A U78G C89U A91C C124A U126G G128U	-6.76
G35U G58A C115U	-7.02

Variant	polymerase ribozyme fitness (log ratio)
C34U U59G A121C C124G	-3.59
G36A G44A C73G C79U U116G	-5.21
G36A A37G C72U G122A	-1.5
G35C G93A	-4.92
C34A U54A	-1.22
U33A G63A	-6.46
U32C C104U U112G	0.174
C34U C62A	-4.23
G36A C102A C104A G120U	-4.83
G36C A50C G52A	-4.73
C34A G48A C73U C101A	-4.83
U33G A111U A121G U125A	-6.73
U33C G39U A111C A121C	-5.95
C34U C86A C114U	-5.07
G36A C94A	-2.77
C34A A41G	-3.94
C31A C40G A46G G63A A111U	-6.15
G35C C49G U78A	-5.52
U32C A43U C123A	-1.31
C34A C40U C85G	-4.94
G35A U59C U116G G122U C124G	-6.12
U32G C62U A105U U112G	-6.91
C34A C40U G48C C114U G120C	-3.6
U33G C56A C88U	-4.09

Variant	polymerase ribozyme fitness (log ratio)
U33A G117U	-5.29
G35A C73G C80A A121G	-6.83
G35C C86A C101U U109C C124G	-7.22
G36A G57A G60U U131G	-0.901
C34U G117U	-5.02
C31U A43C	-6.22
G36A G44U C70U A111C	-2.48
G35A C53U G57U G69A A83U C115U	-6.36
U32C G44U G60A	-0.98
U33A C89A	-6.86
U32C C80U A83U C123G U130G	-1.77
C31A C72A C104G	-6.29
C34A C80U	-4.3
C34A A105U A121U	-1.99
G35U C82U C115A	-6.43
G35C U129G	-6.04
C31G G44U G52U C62U C85U C115U G117A	-7.35
U33A C56G	-4.38
G35U G44A U67C A105G U112A	-6.79
G36A A46C G61A A90C A118C	-6.53
G35A C86G	-5.03
C34A G71U A75G	-4.12
C34G G48U G122A	-7.95
C34G C72U	-5.89

Variant	polymerase ribozyme fitness (log ratio)
G36A C70U C76A C85U	-3.99
C34A G42U C70G U81A C101A	-8.04
U32A C40G C56A A84U	-6.15
U33G C70G G113U	-6.56
C34A G69A	-5.23
G35A G58C	-3.4
U33G G47U C72U G120A	-6.26
G35A G47A G57U	-3.97
C31U U54A	-5.03
C31G C53A G60A C94U U106A	-5.77
G35A U78C	-3.74
U32C G60U A66G C89G	-6.79
C34U U112A	-2.99
U33G C49G G57A C62U A84C C88G G93A G110C	-7.42
U33A C56G G69U	-2.45
G35U G63U	-6.36
C31U G69U U78C A118G	-3.16
C31A C40U A50U G60A C101A U106A C115U A119G	-6.82
C34U C101U U112A	-6.92
G35A G48C C123G	-2.75
C31G U33A C64A G120C	-6.19
G35A A103G	-6.59
C31U C62U	-5.22
U32C C56A C80U	-1.66

Variant	polymerase ribozyme fitness (log ratio)
C34U G52U U87G U112A G135C	-5.16
C34A A83G A100U	-5.18
G35U C73U U112C	-2.9
U32C A90G C97A U130G	-5.05
U33A C64U U87A	-4.27
G35A C88G	-4.5
G36A U81A U125A	-2.6
U32C U81G	-3.83
G35U G69A U81C G113U	-6.53
U33A C72A C76A	-6.92
G35A G42C C73U A84U C123U	-6.85
U32C C62U C73U C85U C98U	-4.16
C31U C40U	-4.75
C34A A75G	-2.34
C34G C115G	-7.42
C34G A111G G127A	-5.87
C34G U125A	-5.11
C31G C98G G110U	-6.25
U33A G61A U87A U133G	-4.05
G36A G42C C76G	-2.73
G35U G69U C79U	-3.35
C31U G47U U112C G120C	-4.82
C34U U54A G61A	-4.4
C34A A50C C53G U106A A111C	-5.87

Variant	polymerase ribozyme fitness (log ratio)
C34U A41G C53U G69U	-2.44
C34A C64G	-6.42
U32C C124G	1.48
U32G C62G G120U	-8.14
C34U C97U	-4.85
U32C G113A U126G U133C	-4.07
G36A C40A C53G U59C C124G	-2.06
U32G A41G C70U C89G C114U	-5.66
U32G A41G C70U C114U	-4.09
G35A C99G U133G	-5.8
C31G C80A A105G G113A	-4.57
G35U A46G G69U C98A	-0.783
C34U C88G	-3.99
G36A C64G C104G G110A G127U	-6.24
G36A G69A C73A G122A	-4.15
C31U C124U	-3.64
U33G U87A	-6.14
U33A C82A	-5.5
U32A G42A U54C U116C G128A	-6.04
G36A G48U C56U U112A G117U G120U G127C U133A	-6.88
C34U G122U	-3.58
C34A G61U A111G	-2.85
C34U A37C G60C C124A	-3.79
C34U G45C C124G	-3.01

Variant	polymerase ribozyme fitness (log ratio)
G35A C88U C99A	-5.74
G35A C73A	-3.7
C34A G57C	-2.62
G36A C89U C94G C114U	-5.66
U32C C53A C101A G120A	-0.18
C31U A118U C123U	-4.23
C34A G71U U92A C114G	-7.83
C34A G52A U96C C124A	-1.41
G35U G61U	-5.28
G36A C49G G93A A95G	-3.09
C34A C62U	-2.79
G36C A50U	-1.67
G36A C72G U92A	-5.43
G35U G39U C72U A75U A103U	-8.04
C34A G113U	-5.39
C34U C124U	-2.06
C34U C124A	-2.31
G35A U87A	-3.5
U33A G44A G51A G63A A66G A74U A111U	-7.25
U32C G71C C79G U81C G113A	-3.36
G35A G45C G71C G77C C104U C114G	-5.08
C31G A50G G60A C79A C124A	-7.23
G35A A41C U54C C64A A84G C101U C123U	-7.59
